Source: patent US20040019188A1, “Targeting through integrins” (priority 2000, published 2004)

Biological target: α5β1 integrin (major fibronectin receptor) on HEp-2 cells (human), P08648
Sequence (P08648 42-1049, chain 1 of 2): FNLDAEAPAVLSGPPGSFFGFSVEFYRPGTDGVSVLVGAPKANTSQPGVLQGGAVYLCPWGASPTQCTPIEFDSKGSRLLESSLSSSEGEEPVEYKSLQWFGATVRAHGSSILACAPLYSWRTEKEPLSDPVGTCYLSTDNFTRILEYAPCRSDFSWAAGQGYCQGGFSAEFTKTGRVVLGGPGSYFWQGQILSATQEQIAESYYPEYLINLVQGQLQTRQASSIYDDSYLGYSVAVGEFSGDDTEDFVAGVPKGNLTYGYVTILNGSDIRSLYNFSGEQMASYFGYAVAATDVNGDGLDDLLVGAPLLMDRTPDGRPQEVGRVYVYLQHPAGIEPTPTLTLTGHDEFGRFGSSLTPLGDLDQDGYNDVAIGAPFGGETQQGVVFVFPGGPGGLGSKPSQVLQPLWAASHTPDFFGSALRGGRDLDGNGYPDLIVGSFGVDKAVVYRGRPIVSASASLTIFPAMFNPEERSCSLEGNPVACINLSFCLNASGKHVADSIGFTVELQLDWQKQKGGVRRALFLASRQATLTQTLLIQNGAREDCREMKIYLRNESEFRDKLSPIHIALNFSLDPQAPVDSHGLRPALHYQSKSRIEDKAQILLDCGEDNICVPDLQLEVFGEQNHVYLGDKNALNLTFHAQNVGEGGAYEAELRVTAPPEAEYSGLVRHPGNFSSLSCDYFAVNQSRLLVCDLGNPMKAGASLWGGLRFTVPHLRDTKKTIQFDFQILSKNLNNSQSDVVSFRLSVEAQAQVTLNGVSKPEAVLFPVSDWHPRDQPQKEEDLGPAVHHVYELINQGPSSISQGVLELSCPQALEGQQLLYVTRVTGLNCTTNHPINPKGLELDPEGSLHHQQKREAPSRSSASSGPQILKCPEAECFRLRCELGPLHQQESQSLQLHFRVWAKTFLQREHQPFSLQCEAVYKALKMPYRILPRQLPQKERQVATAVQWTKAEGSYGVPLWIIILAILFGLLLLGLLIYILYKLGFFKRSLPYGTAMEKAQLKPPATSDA
Sequence (P05556 21-798, chain 2 of 2, further chain): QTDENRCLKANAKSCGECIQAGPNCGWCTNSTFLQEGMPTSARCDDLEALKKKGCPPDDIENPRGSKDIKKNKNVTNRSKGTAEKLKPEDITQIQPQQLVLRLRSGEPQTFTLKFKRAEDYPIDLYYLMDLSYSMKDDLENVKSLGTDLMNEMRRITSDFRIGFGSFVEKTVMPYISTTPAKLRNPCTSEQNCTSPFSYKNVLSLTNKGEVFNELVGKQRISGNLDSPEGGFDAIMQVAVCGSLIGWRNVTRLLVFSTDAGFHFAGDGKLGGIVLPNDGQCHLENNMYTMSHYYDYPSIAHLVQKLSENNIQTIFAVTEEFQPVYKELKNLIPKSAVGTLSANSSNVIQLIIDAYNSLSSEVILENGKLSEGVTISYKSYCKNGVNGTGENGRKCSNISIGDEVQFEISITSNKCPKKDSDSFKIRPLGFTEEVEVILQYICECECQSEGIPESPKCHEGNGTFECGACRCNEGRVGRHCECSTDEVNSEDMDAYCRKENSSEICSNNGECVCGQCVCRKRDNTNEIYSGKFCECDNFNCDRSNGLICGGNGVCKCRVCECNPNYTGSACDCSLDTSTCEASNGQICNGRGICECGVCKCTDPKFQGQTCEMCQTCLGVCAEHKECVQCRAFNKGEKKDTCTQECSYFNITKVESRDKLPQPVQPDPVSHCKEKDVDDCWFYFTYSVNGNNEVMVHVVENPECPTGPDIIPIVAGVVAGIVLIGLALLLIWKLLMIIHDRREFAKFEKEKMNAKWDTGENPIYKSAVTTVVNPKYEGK

B1: RGDS peptide (Gibco) (peptide)
peptide: RGDS
modifications: not checked
ID30: 170 µM
